From patent publication US20260234276A1 (DOMAIN THERAPEUTICS, published 2026)
Several values for one entry are separate records, joined by “and”; a condition that tells them apart may be missing. Identical values can stand only once.

Tests used:
human CCR8 [1] = target: T1, human CCR8 (human, UniProt P51685 1-355); assay: cell-based or functional assay
human CCR8 [2] = target: T1, human CCR8; assay: cell-based or functional assay; remark: listed apart in the source
pm5 = pm5 (human, sulfated tyrosines at Y15 and Y17); assay: ELISA on coated peptide [cont.]
How it was run: (§1)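 Coat 500 ng/mL peptide (carbonate/bicarbonate). Add mAb, 1 μg/mL and 1/10 dilution, 90 min RT. Wash, TMB 15 min, read OD.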

pm6 = pm6 (human, sulfated tyrosines at Y16 and Y17); assay: ELISA on coated peptide [cont.]
How it was run: as §1

pm8 = pm8 (human, sulfated tyrosines at Y15, Y16 and Y17); assay: ELISA on coated peptide [cont.]
How it was run: as §1

pm3 = pm3 (human, sulfated tyrosine at Y17); assay: ELISA on coated peptide [cont.]
How it was run: as §1

human CCR8 [3] = target: T1, human CCR8; assay: flow cytometry, hCCR8 transfected CHOK1 cells
human CCR8 [4] = target: T1, human CCR8; assay: competition flow cytometry on hCCR8 transfected CHO cells; blocked ligand CCL1-AF647 [cont.]
human CCR8 [5] = target: T1, human CCR8; assay: cell-based or functional assay; remark: listed apart in the source
human CCR8 [6] = target: T1, human CCR8; assay: cell-based or functional assay; remark: listed apart in the source
human CCR8 [7] = target: T1, human CCR8; assay: flow cytometry, human activated T cells
Description: (§2) Briefly, 1·10⁵ cells per well in a 96 well plate were incubated with a dilution of unconjugated anti-CCR8 mAb at 10 μg/mL then diluted at 1/3.33, 4 dilution points (during 30 min at 4° C.). […] To determine EC50 value, 8 concentrations of anti-CCR8 mAb were tested. Unbound antibodies were washed away with PBS (Invitrogen by Thermofisher Scientific, Illkirch-Graffenstaden, France) supplemented by 2% Fetal Bovine Serum (Invitrogen by Thermofisher Scientific, Illkirch-Graffenstaden, France) and 2 mM EDTA (Invitrogen by Thermofisher Scientific, Illkirch-Graffenstaden, France). Subsequently, cells are centrifuged (5 min at 400 g) and bound antibody is detected with F(ab′)₂-Goat anti-Mouse IgG (H+L) Cross-Adsorbed Secondary Antibody, Alexa Fluor 488 (dilution 1/500) (Invitrogen by Thermofisher Scientific, Illkirch-Graffenstaden, France) or with F(ab′)₂-Goat anti-Human IgG Fc Secondary Antibody, PE (Invitrogen by Thermofisher Scientific, Illkirch-Graffenstaden, France) (dilution 1/1000) at 4° C. for 30 min. Detection reagent is washed away and cells are centrifuged (5 min at 400 g) and resuspended in 30 μL PBS. Bound detection antibody is quantified on a MacsQuant16 (Miltenyi, Gladbach, Germany) (B1 or B2 channel, 5000 events per acquisition).
(§3) Binding characteristics of anti-CCR8 mAb cellular reactivity was further investigated by testing their binding to activated T cells.

human CCR8 [8] = target: T1, human CCR8; assay: flow cytometry, HUT78 cells (native CCR8)
human CCR8 [9] = target: T1, human CCR8; assay: flow cytometry, hCCR8 transfected CHOK1 cells; remark: listed apart in the source
Description: as §2
EC50 values were not constantly determined in the same experiments.

human CCR8 [10] = target: T1, human CCR8; assay: flow cytometry, human activated T cells pre-incubated with 200 nM hCCL1
Description: as §2, §3

human CCR8 [11] = target: T1, human CCR8; assay: competition HTRF on HEK-293 cells with hCCR8; blocked ligand CCL1-AF647 [cont.]

Sequence of pm3 (human, sulfated tyrosine at Y17) (peptide, as listed by the source): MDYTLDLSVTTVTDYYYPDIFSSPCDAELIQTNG
Sequence of pm6 (human, sulfated tyrosines at Y16 and Y17) (peptide, as listed by the source): as above
Sequence of pm5 (human, sulfated tyrosines at Y15 and Y17) (peptide, as listed by the source): as above
Sequence of pm8 (human, sulfated tyrosines at Y15, Y16 and Y17) (peptide, as listed by the source): as above

B1: 3-5 (antibody, V domains shown)
VH: EVQLLESGGGLVQPKGSLKLSCAASGFTFNPYAMNWVRQAPGRGLEWVARIRSKSNNYATYYADSVKDRFTISRDDSQDMLYLQMNNLKTEDTAMYYCVRGREAYYRYDGDYYAMDYWGQGTSVTVSS
VL: DIVMTQAAPSVPVTPGESVSISCRSSKSLLHSNGNTYLYWFLQRPGQSPQLLIYRMSNLASGVPDRFSGSGSGTAFTLRISRVEAEDVGVYYCMQHLEYPFTFGSGTKLEIK
IC50 (Gi2 BRET, pH 6.5) (human CCR8 [1]): 0.021 µg/ml and 0.143 nM
IC50 (Gi2 BRET, pH 7.4) (human CCR8 [1]): 0.163 nM and 0.024 µg/ml
hCCL1 (100 nM) residual response, Protocol #2, mAb 0.08 µg/mL (human CCR8 [2]): 81%
hCCL1 (100 nM) residual response, Protocol #2, mAb 0.4 µg/mL (human CCR8 [2]): 69%
hCCL1 (100 nM) residual response, Protocol #2, mAb 10 µg/mL (human CCR8 [2]): 44%
hCCL1 (100 nM) residual response, Protocol #3, mAb 0.05 µg/mL (human CCR8 [2]): 77%
hCCL1 (100 nM) residual response, Protocol #3, mAb 0.5 µg/mL (human CCR8 [2]): 57%
hCCL1 (100 nM) residual response, Protocol #3, mAb 5 µg/mL (human CCR8 [2]): 49%
binding result (pm5): binds
binding result (pm6): binds
binding result (pm8): binds
binding result (pm3): binds
% positive cells (human CCR8 [3]): 72.8%
MFI fold change to isotype ctrl (human CCR8 [3]): 6.32 fold
IC50 (read off the curve) (human CCR8 [4]): ~1 µg/mL

B2: 3-82 (antibody, human IgG1, kappa, V domains shown)
VH: QVQLVESGGGVVQPGRSLRLSCAASGFTFSNYRMHWVRQAPGKGLEWIAVIKVKSDNYGANYADSVKGRFTISRDNSKNTLYLQMNSLRAEDTAVYYCSSPTYPGSSGFAYWGQGTLVTVSS
VL: DIQMTQSPSSLSASVGDRVTITCRASQDISNYLNWYQQKPDGTVKLLIYYTSRLHTGVPSRFSGSGSGTDYTLTISNLQQEDIATYFCQQGNKFPPTFGGGTKVEINR
notes: humanized, human IgG1 kappa
IC50 (Gi2 BRET, pH 6.5) (human CCR8 [1]): 0.018 µg/ml and 0.12 nM
IC50 (Gi2 BRET, pH 7.4) (human CCR8 [1]): 0.02 µg/ml and 0.134 nM
hCCL1 (100 nM) residual response, Protocol #2, mAb 0.08 µg/mL (human CCR8 [2]): 85%
hCCL1 (100 nM) residual response, Protocol #2, mAb 0.4 µg/mL (human CCR8 [2]): 94%
hCCL1 (100 nM) residual response, Protocol #2, mAb 10 µg/mL (human CCR8 [2]): 60%
hCCL1 (100 nM) residual response, Protocol #3, mAb 0.05 µg/mL (human CCR8 [2]): 93%
hCCL1 (100 nM) residual response, Protocol #3, mAb 0.5 µg/mL (human CCR8 [2]): 85%
hCCL1 (100 nM) residual response, Protocol #3, mAb 5 µg/mL (human CCR8 [2]): 62%
Top plateau value (% of hCCL1 100 nM) with 5 µg/mL mAb, Protocol #3 (human CCR8 [5]): 794%
ADCC % Max lysis, NK cells Donor 3 (human CCR8 [6]): 16%
ADCC % Max lysis, NK cells Donor 4 (human CCR8 [6]): 19%
ADCC EC50, NK cells Donor 3 (human CCR8 [6]): 0.349 nM
ADCC EC50, NK cells Donor 4 (human CCR8 [6]): 1.91 nM
% of labelled cells (human CCR8 [7]): 63%
% of labelled cells (human CCR8 [8]): 93%
EC50 (human CCR8 [9]): 0.1 nM
% of labelled cells (human CCR8 [10]): 54%
IC50 (read off the curve) (human CCR8 [11]): ~0.02 µg/mL
